Source: paper PMC11230385

Target: T1, Aquaporin Z with a C-terminal Strep-tag II (AqpZ-STII) (Escherichia coli), P60844
T1 chain: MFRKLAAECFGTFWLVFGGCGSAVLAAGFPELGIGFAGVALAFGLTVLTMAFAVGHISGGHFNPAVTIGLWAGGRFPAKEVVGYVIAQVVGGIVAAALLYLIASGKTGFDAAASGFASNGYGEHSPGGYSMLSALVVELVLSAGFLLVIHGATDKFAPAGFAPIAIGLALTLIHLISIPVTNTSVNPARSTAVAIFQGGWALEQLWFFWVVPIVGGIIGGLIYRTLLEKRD
Assay: native MS
Conditions: remark: other sources report otherwise

B1: Aquaporin Z with a C-terminal Strep-tag II (AqpZ-STII), P60844 1-231 (natural protein)
chain: MFRKLAAECFGTFWLVFGGCGSAVLAAGFPELGIGFAGVALAFGLTVLTMAFAVGHISGGHFNPAVTIGLWAGGRFPAKEVVGYVIAQVVGGIVAAALLYLIASGKTGFDAAASGFASNGYGEHSPGGYSMLSALVVELVLSAGFLLVIHGATDKFAPAGFAPIAIGLALTLIHLISIPVTNTSVNPARSTAVAIFQGGWALEQLWFFWVVPIVGGIIGGLIYRTLLEKRD
- stoichiometry N: 4
